Tested on: peptide library, one residue held at a place counted from the S/T acceptor
Experiment: relative phosphorylation of the sub-library (ratio to the mean residue at this position); higher = residue favoured
Procedure, shortened: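 Purified recombinant kinases, either human or orthologue constructs, were incubated in 384-well plates with biotinylated degenerate peptide sub-libraries. Each sub-library fixed one residue at one position around a central Ser/Thr. Peptides at 50 μM and 50 μM ATP spiked with γ-32P-ATP were used for 90 min under kinase-specific conditions, and spots on streptavidin membranes were phosphorimaged and quantified by densitometry. Relative sub-library phosphorylation is expressed as a ratio to the mean residue at that position.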

ATR, construct: Full length, human, sequence (Q13535 whole entry, looked up): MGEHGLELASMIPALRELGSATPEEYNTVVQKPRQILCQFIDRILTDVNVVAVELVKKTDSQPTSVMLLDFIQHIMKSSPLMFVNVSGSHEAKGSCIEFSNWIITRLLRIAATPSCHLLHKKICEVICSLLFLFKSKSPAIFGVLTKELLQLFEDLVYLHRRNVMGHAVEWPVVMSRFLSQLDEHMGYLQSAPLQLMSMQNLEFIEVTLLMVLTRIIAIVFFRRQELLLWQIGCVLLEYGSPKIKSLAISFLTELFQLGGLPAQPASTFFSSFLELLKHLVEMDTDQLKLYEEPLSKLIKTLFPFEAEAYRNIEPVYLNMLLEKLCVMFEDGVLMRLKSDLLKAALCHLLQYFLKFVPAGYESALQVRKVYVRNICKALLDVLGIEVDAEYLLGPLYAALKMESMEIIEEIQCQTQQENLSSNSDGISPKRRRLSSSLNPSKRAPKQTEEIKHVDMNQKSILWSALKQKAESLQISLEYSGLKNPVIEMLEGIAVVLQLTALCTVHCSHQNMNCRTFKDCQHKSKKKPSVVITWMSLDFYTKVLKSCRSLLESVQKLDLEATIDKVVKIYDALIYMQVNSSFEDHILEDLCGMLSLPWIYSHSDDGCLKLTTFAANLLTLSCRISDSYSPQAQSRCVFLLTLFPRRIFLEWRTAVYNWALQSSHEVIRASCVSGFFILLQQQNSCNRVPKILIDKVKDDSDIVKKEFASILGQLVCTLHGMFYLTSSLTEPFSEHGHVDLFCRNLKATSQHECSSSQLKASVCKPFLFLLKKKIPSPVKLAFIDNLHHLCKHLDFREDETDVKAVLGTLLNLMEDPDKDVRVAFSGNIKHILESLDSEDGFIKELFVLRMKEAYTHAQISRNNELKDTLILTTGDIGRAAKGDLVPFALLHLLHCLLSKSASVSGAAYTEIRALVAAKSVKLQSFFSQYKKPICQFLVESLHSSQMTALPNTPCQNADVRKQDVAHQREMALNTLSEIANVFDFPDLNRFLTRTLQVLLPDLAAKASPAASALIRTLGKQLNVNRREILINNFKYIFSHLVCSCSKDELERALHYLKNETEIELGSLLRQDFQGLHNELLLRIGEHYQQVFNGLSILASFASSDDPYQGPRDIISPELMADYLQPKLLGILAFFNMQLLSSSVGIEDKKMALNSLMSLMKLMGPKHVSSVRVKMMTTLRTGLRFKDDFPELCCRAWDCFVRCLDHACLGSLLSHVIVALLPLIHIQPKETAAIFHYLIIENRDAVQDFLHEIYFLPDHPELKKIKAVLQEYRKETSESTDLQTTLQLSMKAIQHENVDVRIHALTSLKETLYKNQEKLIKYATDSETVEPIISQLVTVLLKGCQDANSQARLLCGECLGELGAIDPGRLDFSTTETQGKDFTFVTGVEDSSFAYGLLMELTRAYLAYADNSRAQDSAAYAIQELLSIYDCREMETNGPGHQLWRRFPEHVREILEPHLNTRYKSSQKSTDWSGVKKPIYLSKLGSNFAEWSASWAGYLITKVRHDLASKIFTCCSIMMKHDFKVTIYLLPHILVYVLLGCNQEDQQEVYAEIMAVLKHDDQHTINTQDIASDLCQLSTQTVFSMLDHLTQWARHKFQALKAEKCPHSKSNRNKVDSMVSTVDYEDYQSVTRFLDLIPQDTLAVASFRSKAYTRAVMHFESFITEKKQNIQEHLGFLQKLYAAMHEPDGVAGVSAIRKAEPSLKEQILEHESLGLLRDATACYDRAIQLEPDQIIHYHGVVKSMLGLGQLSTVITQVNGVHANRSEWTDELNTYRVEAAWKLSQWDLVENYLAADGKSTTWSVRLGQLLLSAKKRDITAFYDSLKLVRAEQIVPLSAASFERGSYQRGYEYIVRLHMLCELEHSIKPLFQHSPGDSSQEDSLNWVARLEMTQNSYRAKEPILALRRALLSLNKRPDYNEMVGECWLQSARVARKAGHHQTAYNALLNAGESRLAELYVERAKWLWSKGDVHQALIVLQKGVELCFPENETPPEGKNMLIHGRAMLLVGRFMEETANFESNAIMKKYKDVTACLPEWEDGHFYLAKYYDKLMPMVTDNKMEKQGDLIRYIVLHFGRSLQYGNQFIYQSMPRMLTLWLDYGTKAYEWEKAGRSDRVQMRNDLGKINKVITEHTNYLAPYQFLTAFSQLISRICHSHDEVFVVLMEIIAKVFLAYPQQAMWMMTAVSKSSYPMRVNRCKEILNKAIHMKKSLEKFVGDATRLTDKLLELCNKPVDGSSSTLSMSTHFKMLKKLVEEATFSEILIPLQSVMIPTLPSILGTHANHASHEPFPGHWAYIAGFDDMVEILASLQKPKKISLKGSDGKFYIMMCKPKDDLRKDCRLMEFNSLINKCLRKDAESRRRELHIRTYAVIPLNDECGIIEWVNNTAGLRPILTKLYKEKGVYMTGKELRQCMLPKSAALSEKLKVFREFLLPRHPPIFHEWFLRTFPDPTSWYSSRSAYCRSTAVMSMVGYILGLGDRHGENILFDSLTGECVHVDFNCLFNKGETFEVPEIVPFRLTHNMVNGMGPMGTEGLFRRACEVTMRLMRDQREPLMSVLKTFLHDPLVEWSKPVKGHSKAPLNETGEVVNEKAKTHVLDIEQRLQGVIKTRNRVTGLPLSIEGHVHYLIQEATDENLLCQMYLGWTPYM

PRKCH, construct: Full length, human (from UniProt P24723)
relative phosphorylation
Settings	at +1	at +2	at +3	at +4	at -1	at -2	at -3	at -4	at -5
A fixed	0.536	0.49	0.738	0.933	1.07	0.893	0.78	1.1	1.19
D fixed	0.187	0.163	0.449	0.528	0.548	0.496	0.423	0.718	0.638
E fixed	0.282	0.15	0.547	0.496	0.55	0.467	0.469	0.799	0.721
F fixed	1.78	0.68	0.858	0.658	0.632	0.721	0.813	0.773	1.23
G fixed	0.374	0.299	1.06	0.926	1.42	1.13	0.776	1.12	0.955
H fixed	0.661	1.39	1.28	1.45	0.981	1.24	1.39	1.15	1.12
I fixed	1.47	0.622	0.754	0.632	0.397	0.405	0.444	0.614	0.818
K fixed	1.86	3.28	2.09	2.44	1.98	1.9	1.88	1.72	1.53
L fixed	1.19	0.561	0.883	0.64	0.733	0.438	0.551	0.66	0.852
M fixed	1.43	0.745	0.785	0.708	0.929	0.592	0.695	0.869	0.722
N fixed	0.548	0.668	0.974	1.04	1.36	1.32	0.995	1.06	0.97
P fixed	0.286	0.212	0.554	1.11	1.11	0.736	0.821	1.05	0.798
Q fixed	1.12	0.583	0.839	0.986	0.999	1.28	0.842	0.927	0.878
R fixed	2.06	4.08	2.24	1.99	2.16	3.2	4.05	1.67	1.75
V fixed	1.31	0.596	0.754	0.715	0.593	0.447	0.466	0.716	0.847
W fixed	0.831	0.669	1.05	1	0.61	1.02	0.786	1.18	1.12
Y fixed	1.07	1.81	1.16	0.753	0.94	0.696	0.824	0.878	0.857
pThr fixed	0.833	0.36	0.641	0.773	0.411	0.691	0.644	0.881	0.699
pTyr fixed	0.574	0.268	0.811	0.593	0.751	0.641	0.847	0.869	1.09

ATR, construct: Full length, human (from UniProt Q13535)
relative phosphorylation
Settings	at +1	at +2	at +3	at +4	at -1	at -2	at -3	at -4	at -5
A fixed	0.714	1.01	1.05	1.05	1.46	1.01	1.01	0.94	0.971
D fixed	0.582	1.07	1.13	0.968	0.86	0.785	0.814	0.984	1.17
E fixed	0.586	1.07	1.21	0.929	0.742	0.871	0.88	1.18	1.07
F fixed	0.709	0.913	0.944	0.988	0.872	0.957	1.08	1.18	1.3
G fixed	0.651	0.921	0.965	1.13	1.26	0.839	0.875	1.05	1.01
H fixed	0.624	1.06	0.991	1.02	0.845	0.973	0.889	0.982	1.01
I fixed	0.747	0.898	0.866	0.875	0.687	0.793	1.1	0.912	0.818
K fixed	0.649	0.923	0.877	0.928	0.806	1.09	0.911	0.919	0.884
L fixed	0.73	0.871	0.887	0.993	1.26	0.84	1.18	0.901	0.901
M fixed	0.685	0.908	0.92	0.995	0.978	0.94	1.12	0.96	0.931
N fixed	0.933	1.05	1	1.02	1.17	0.945	0.816	0.892	0.877
P fixed	0.689	1.14	1.18	1.19	1.45	1.59	0.972	0.956	0.909
Q fixed	5.91	1.23	1.09	0.994	1.2	1.03	0.859	0.926	0.871
R fixed	0.83	1.09	0.972	0.97	0.855	1.67	1.62	0.982	1
V fixed	0.665	0.967	0.988	0.849	0.725	0.768	0.884	0.867	0.802
W fixed	0.618	0.926	0.934	1.11	0.842	0.916	1.08	1.26	1.23
Y fixed	0.671	0.971	1	0.984	0.987	0.99	0.911	1.11	1.23
pThr fixed	0.679	0.968	1.36	1.1	0.799	0.849	0.99	1.38	1.3
pTyr fixed	0.62	1.01	1.03	1.44	0.904	1.14	1.83	2.14	1.62

From the supplement of paper PMC9876800
